Reference: article PMC9352680, “A comprehensive thermodynamic model for RNA binding by the Saccharomyces cerevisiae Pumilio protein PUF4”

T1: PUF4 RNA-binding domain (Saccharomyces cerevisiae, UniProt P25339 537-888)
T1 sequence: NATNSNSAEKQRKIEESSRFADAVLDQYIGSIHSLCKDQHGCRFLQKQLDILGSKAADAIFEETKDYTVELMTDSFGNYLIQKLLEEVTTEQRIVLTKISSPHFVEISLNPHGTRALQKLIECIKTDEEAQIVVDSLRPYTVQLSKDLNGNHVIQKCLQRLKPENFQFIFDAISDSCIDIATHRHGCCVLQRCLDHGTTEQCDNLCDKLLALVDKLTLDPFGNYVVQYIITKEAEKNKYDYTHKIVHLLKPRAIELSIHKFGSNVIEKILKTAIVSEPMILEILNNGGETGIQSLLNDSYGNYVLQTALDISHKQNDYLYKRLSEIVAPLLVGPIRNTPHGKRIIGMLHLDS

B1: Ic_S2_P4E.1_K4.1_C4.1_H4.1_A4.1_[T5G]_[A6C]_[T7C]_F4.1_[T8C]_[A9C]_T4.1 (ssRNA)
RNA: UUUGAUUAAUAUGAUAUCGUUCUUUCUUGUAGCCCCUUCUUUCUCGAUAUCAUAUUAAUCUUU
B2: Ic_S2_P4E.1_K4.1_C4.1_H4.1_A4.1_[T5G]_[A6C]_F4.1_[T8C]_[A9G]_T4.1 (ssRNA)
RNA: UUUGAUUAAUAUGAUAUCGUUCUUUCUUGUAGCUCGUUCUUUCUCGAUAUCAUAUUAAUCUUU
B3: Ic_S2_P4E.1_K4.1_C4.1_H4.1_A4.1_[T5G]_[A6T]_F4.1_[T8C]_[A9C]_T4.1 (ssRNA)
RNA: UUUGAUUAAUAUGAUAUCGUUCUUUCUUGUAGUUCCUUCUUUCUCGAUAUCAUAUUAAUCUUU
B4: Ic_S2_P4E.1_K4.1_C4.1_H4.1_A4.1_[T5G]_[A6T]_[T7C]_F4.1_[T8C]_[A9C]_T4.1 (ssRNA)
RNA: UUUGAUUAAUAUGAUAUCGUUCUUUCUUGUAGUCCCUUCUUUCUCGAUAUCAUAUUAAUCUUU
B5: Ic_S2_P4E.1_K4.1_C4.1_H4.1_A4.1_[T5G]_[A6T]_[T7A]_F4.1_[T8A]_[A9T]_T4.1 (ssRNA)
RNA: UUUGAUUAAUAUGAUAUCGUUCUUUCUUGUAGUAAUUUCUUUCUCGAUAUCAUAUUAAUCUUU
B6: Ic_S2_P4E.1_K4.1_C4.1_H4.1_A4.1_[T5G]_[A6T]_[T7C]_F4.1_[T8C]_T4.1 (ssRNA)
RNA: UUUGAUUAAUAUGAUAUCGUUCUUUCUUGUAGUCCAUUCUUUCUCGAUAUCAUAUUAAUCUUU
B7: Ic_S2_P4E.1_K4.1_C4.1_H4.1_A4.1_[T5G]_[A6C]_[T7A]_F4.1_[T8C]_T4.1 (ssRNA)
RNA: UUUGAUUAAUAUGAUAUCGUUCUUUCUUGUAGCACAUUCUUUCUCGAUAUCAUAUUAAUCUUU
B8: Ic_S2_P4E.1_K4.1_C4.1_H4.1_A4.1_[T5G]_[A6T]_[T7A]_F4.1_T4.1 (ssRNA)
RNA: UUUGAUUAAUAUGAUAUCGUUCUUUCUUGUAGUAUAUUCUUUCUCGAUAUCAUAUUAAUCUUU
B9: Ic_S2_P4E.1_K4.1_C4.1_H4.1_A4.1_[T5G]_[A6C]_[T7C]_F4.1_[T8A]_[A9G]_T4.1 (ssRNA)
RNA: UUUGAUUAAUAUGAUAUCGUUCUUUCUUGUAGCCAGUUCUUUCUCGAUAUCAUAUUAAUCUUU
B10: Ic_S2_P4E.1_K4.1_C4.1_H4.1_A4.1_[T5G]_[A6C]_F4.1_[T8C]_T4.1 (ssRNA)
RNA: UUUGAUUAAUAUGAUAUCGUUCUUUCUUGUAGCUCAUUCUUUCUCGAUAUCAUAUUAAUCUUU
B11: Ic_S2_P4E.1_K4.1_C4.1_H4.1_A4.1_[T5G]_[A6C]_[T7C]_F4.1_T4.1 (ssRNA)
RNA: UUUGAUUAAUAUGAUAUCGUUCUUUCUUGUAGCCUAUUCUUUCUCGAUAUCAUAUUAAUCUUU
B12: Ic_S2_P4E.1_K4.1_C4.1_H4.1_A4.1_[T5G]_[A6C]_[T7A]_F4.1_T4.1 (ssRNA)
RNA: UUUGAUUAAUAUGAUAUCGUUCUUUCUUGUAGCAUAUUCUUUCUCGAUAUCAUAUUAAUCUUU
B13: Ic_S2_P4E.1_K4.1_C4.1_H4.1_A4.1_[T5G]_[A6C]_F4.1_[T8A]_T4.1 (ssRNA)
RNA: UUUGAUUAAUAUGAUAUCGUUCUUUCUUGUAGCUAAUUCUUUCUCGAUAUCAUAUUAAUCUUU
B14: Ic_S2_P4E.1_K4.1_C4.1_H4.1_A4.1_[T5G]_[A6C]_F4.1_[A9C]_T4.1 (ssRNA)
RNA: UUUGAUUAAUAUGAUAUCGUUCUUUCUUGUAGCUUCUUCUUUCUCGAUAUCAUAUUAAUCUUU
B15: Ic_S2_P4E.1_K4.1_C4.1_H4.1_A4.1_[T5G]_[A6C]_[T7C]_F4.1_[T8C]_[A9T]_T4.1 (ssRNA)
RNA: UUUGAUUAAUAUGAUAUCGUUCUUUCUUGUAGCCCUUUCUUUCUCGAUAUCAUAUUAAUCUUU
B16: Ic_S2_P4E.1_K4.1_C4.1_H4.1_A4.1_[T5G]_[A6T]_[T7C]_F4.1_[A9T]_T4.1 (ssRNA)
RNA: UUUGAUUAAUAUGAUAUCGUUCUUUCUUGUAGUCUUUUCUUUCUCGAUAUCAUAUUAAUCUUU
B17: Ic_S2_P4E.1_K4.1_C4.1_H4.1_A4.1_[T5G]_[A6C]_F4.1_[T8G]_[A9G]_T4.1 (ssRNA)
RNA: UUUGAUUAAUAUGAUAUCGUUCUUUCUUGUAGCUGGUUCUUUCUCGAUAUCAUAUUAAUCUUU
B18: Ic_S2_P4E.1_K4.1_C4.1_H4.1_A4.1_[T5G]_[A6C]_[T7A]_F4.1_[T8A]_T4.1 (ssRNA)
RNA: UUUGAUUAAUAUGAUAUCGUUCUUUCUUGUAGCAAAUUCUUUCUCGAUAUCAUAUUAAUCUUU
B19: Ic_S2_P4E.1_K4.1_C4.1_H4.1_A4.1_[T5G]_[A6T]_F4.1_[T8A]_[A9T]_T4.1 (ssRNA)
RNA: UUUGAUUAAUAUGAUAUCGUUCUUUCUUGUAGUUAUUUCUUUCUCGAUAUCAUAUUAAUCUUU
B20: Ic_S2_P4E.1_K4.1_C4.1_H4.1_A4.1_[T5G]_[A6C]_F4.1_[A9G]_T4.1 (ssRNA)
RNA: UUUGAUUAAUAUGAUAUCGUUCUUUCUUGUAGCUUGUUCUUUCUCGAUAUCAUAUUAAUCUUU

Biological target: T1, PUF4 RNA-binding domain
Experiment: Mg; RNA-MaP; 20 mM Na-HEPES pH 7.4, 30 mM KOAc, 0.75 mM MgCl2, 0.1% Tween-20, 5% glycerol, 0.1 mg/mL BSA, 2 mM DTT; 25 C; 0.0125-409.6 nM protein
Details: tags: N-His6-TEV cleaved; C-SNAP kept, Cy3B-labelled; label: tethered on chip by stalled RNA polymerase

Binder | Kd [nM]
UCUCUUUGUUCAUAUCUCUU (ssRNA) [Ib_S1_P3E.1_K3.1_C3.1_H3.1_[A4T]_A3.1_[T5C]_F3.1_T3.1] | 682
UCUCUUUGUGUGUAUCUCUU (ssRNA) [Ib_S1_P3E.1_K3.1_C3.1_H3.1_[A4G]_A3.1_[A6G]_F3.1_T3.1] | 178
UCUCUUUGCAAAUAUCUCUU (ssRNA) [Ib_S1_P3E.1_K3.1_C3.1_H3.1_[T3C]_A3.1_[T5A]_F3.1_T3.1] | > 2300
B1 | 685
B2 | 988
B3 | 257
B4 | 473
B5 | 342
B6 | 527
B7 | 828
B8 | 2.26
B9 | > 2300
B10 | 266
B11 | 5.95
B12 | 1.41
B13 | 111
B14 | 52.2
B15 | 614
B16 | 41.9
B17 | 709
B18 | 360
B19 | 148
B20 | 208
